Consider 1 molecule from paper doi:10.1101/2020.06.03.131664 (2020).

Holding throughout (assay): SPR; bivalent fitting model
The target in assay [1] is HAdV-D26 capsid (human adenovirus type 26, species D, replication-defective vector particle) (human adenovirus type 26 (species D)).
The target in assay [2] is HAdV-C5 capsid (human adenovirus type 5, species C, replication-defective vector particle) (human adenovirus type 5 (species C), UniProt P04133 1-952).
The target in assay [3] is HAdV-B35 capsid (human adenovirus type 35, species B, replication-defective vector particle) (human adenovirus type 35 (species B)).

Chain of HAdV-C5 capsid (human adenovirus type 5, species C, replication-defective vector particle) (P04133 whole entry, looked up): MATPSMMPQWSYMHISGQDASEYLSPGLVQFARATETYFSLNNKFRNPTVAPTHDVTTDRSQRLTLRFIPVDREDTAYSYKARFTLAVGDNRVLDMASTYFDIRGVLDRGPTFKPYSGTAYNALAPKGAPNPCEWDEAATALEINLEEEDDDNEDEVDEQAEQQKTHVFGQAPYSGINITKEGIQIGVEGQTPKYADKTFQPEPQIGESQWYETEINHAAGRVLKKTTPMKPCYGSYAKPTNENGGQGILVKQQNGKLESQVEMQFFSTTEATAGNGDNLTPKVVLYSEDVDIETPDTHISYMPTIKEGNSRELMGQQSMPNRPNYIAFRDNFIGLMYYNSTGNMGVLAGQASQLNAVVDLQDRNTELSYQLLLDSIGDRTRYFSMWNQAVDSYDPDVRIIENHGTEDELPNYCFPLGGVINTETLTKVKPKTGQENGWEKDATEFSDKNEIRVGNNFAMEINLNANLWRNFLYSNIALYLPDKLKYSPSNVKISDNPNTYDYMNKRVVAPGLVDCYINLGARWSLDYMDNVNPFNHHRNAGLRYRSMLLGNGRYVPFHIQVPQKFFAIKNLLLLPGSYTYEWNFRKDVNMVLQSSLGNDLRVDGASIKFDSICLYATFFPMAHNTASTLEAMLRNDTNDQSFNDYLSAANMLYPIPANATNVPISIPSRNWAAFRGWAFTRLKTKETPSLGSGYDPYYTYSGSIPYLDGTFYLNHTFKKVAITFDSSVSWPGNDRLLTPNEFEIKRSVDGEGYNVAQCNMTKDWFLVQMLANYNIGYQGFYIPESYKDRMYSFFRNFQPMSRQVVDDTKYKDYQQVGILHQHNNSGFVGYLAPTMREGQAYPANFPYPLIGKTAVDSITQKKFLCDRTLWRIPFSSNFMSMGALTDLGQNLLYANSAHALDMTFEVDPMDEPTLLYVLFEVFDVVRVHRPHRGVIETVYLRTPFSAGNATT

B1: human lactoferrin (natural protein)
chain: GRRRSVQWCAVSQPEATKCFQWQRNMRKVRGPPVSCIKRDSPIQCIQAIAENRADAVTLDGGFIYEAGLAPYKLRPVAAEVYGTERQPRTHYYAVAVVKKGGSFQLNELQGLKSCHTGLRRTAGWNVPIGTLRPFLNWTGPPEPIEAAVARFFSASCVPGADKGQFPNLCRLCAGTGENKCAFSSQEPYFSYSGAFKCLRDGAGDVAFIRESTVFEDLSDEAERDEYELLCPDNTRKPVDKFKDCHLARVPSHAVVARSVNGKEDAIWNLLRQAQEKFGKDKSPKFQLFGSPSGQKDLLFKDSAIGFSRVPPRIDSGLYLGSGYFTAIQNLRKSEEEVAARRARVVWCAVGEQELRKCNQWSGLSEGSVTCSSASTTEDCIALVLKGEADAMSLDGGYVYTAGKCGLVPVLAENYKSQQSSDPDPNCVDRPVEGYLAVAVVRRSDTSLTWNSVKGKKSCHTAVDRTAGWNIPMGLLFNQTGSCKFDEYFSQSCAPGSDPRSNLCALCIGDEQGENKCVPNSNERYYGYTGAFRCLAENAGDVAFVKDVTVLQNTDGNNNEAWAKDLKLADFALLCLDGKRKPVTEARSCHLAMAPNHAVVSRMDKVERLKQVLLHQQAKFGRNGSDCPDKFCLFQSETKNLLFNDNTECLARLHGKTTYEKYLGPQYVAGITNLKKCSTSPLLEACEFLRK
Consider B1, for which the Kd turned out to be 2550 nM in assay [1], 800 nM in assay [2] and 54 µM in assay [3].
